Columns and labels:
[1] = molecular target: T1, human podoplanin on lung squamous cell cancer cells RERF-LC-AI-hPDPN (human, UniProt Q86YL7 23-162); experiment: flow cytometry on RERF-LC-AI-hPDPN cells, antibody 1 µg/ml
T1 construct: Podoplanin gene expression strain
T1 chain: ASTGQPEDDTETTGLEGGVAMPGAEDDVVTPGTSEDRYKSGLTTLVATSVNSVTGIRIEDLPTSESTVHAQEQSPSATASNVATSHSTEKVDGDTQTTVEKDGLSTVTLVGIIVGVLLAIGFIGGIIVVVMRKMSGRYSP
Procedure: (§1) Reactivity of the anti-podoplanin antibodies (LpMab-2, LpMab-3, LpMab-7, and LpMab-9) with a podoplanin expression strain was studied by flow cytometry. […] The reaction products were each reacted further with an anti-mouse IgG-FITC antibody (product of Life Technologies) at 4° C. for 30 minutes. As a negative control, only the secondary antibody of each of them was used. Fluorescence intensity was measured using EC800 (product of Sony).

[2] = molecular target: T2, human podoplanin on lymphatic endothelial cells (human, UniProt Q86YL7 23-162); experiment: flow cytometry on lymphatic endothelial cells, antibody 1 µg/ml
T2 construct: Normal cells; cultured cells in flow cytometry, cells in paraffin sections in immunohistostaining (see assay of each row); also called lymphatic epithelial cells; lymphatic cells
T2 chain: T1 chain
Procedure: as §1

[3] = molecular target: T3, human podoplanin on renal epithelial cells HEK-293T (human, UniProt Q86YL7 23-162); experiment: flow cytometry on HEK-293T cells, antibody 1 µg/ml
T3 construct: Podoplanin of the cell line itself; also called normal renal epithelial cells
T3 chain: T1 chain
Procedure: as §1

[4] = molecular target: T4, human podoplanin on mesothelial cells Met-5A (human, UniProt Q86YL7 23-162); experiment: flow cytometry on Met-5A cells, antibody 1 µg/ml
T4 construct: Podoplanin of the cell line itself; also called normal mesothelial cells; normal epithelial cell line (Met-5A)
T4 chain: T1 chain
Procedure: as §1

[5] = molecular target: T5, human podoplanin on lung squamous cell cancer tissue (paraffin section) (human, UniProt Q86YL7 23-162); experiment: immunohistostaining of paraffin sections (FIG. 8)
T5 chain: T1 chain
Procedure: (§2) Various paraffin sections were deparaffined in xylene and ethanol solutions. Antigen activation operation was not performed. The endogenous peroxidase was inactivated with 3% H₂O₂. Blocking was performed at room temperature for 10 minutes with SuperBlock (product of Thermo Fisher) and the primary antibody was reacted at room temperature for one hour. After amplification using a LSAB kit (product of Dako), color was developed using DAB (product of Dako).
(§3) LpMab-23 is a cancer cell-specific antibody. […] LpMab-7 used as a positive control reacted with both cancer cells and lymphatic epithelial cells.

[6] = molecular target: T6, human podoplanin on glioblastoma tissue (paraffin section) (human, UniProt Q86YL7 23-162); experiment: immunohistostaining of paraffin sections (FIG. 8)
T6 chain: T1 chain
Procedure: as §2, §3

[7] = molecular target: T7, human podoplanin on esophageal squamous cell cancer tissue (paraffin section) (human, UniProt Q86YL7 23-162); experiment: immunohistostaining of paraffin sections (FIG. 8)
T7 construct: also called esophagus squamous cell cancer
T7 chain: T1 chain
Procedure: as §2, §3

[8] = molecular target: T8, human podoplanin on seminoma tissue (paraffin section) (human, UniProt Q86YL7 23-162); experiment: immunohistostaining of paraffin sections (FIG. 8)
T8 chain: T1 chain
Procedure: as §2, §3

[9] = molecular target: T9, human podoplanin on normal alveolar epithelial cells (paraffin section) (human, UniProt Q86YL7 23-162); experiment: immunohistostaining of a normal lung paraffin section (FIG. 4D)
T9 construct: also called normal lung
T9 chain: T1 chain
Procedure: (§4) Various paraffin sections were deparaffined in xylene and ethanol solutions. The resulting sections were autoclaved for 20 minutes using an antigen activator reagent (citrate buffer (pH 6.0): product of Dako). Endogenous peroxidase was inactivated with 3% H₂O₂. After blocking at room temperature for 10 minutes with SuperBlock (product of Thermo Fisher), a primary antibody was reacted at room temperature for one hour. After amplification using a LSAB kit (product of Dako), color was developed using DAB (product of Dako).
(§5) LpMab-2 is a tumor-specific antibody. […] LpMab-7 reacted with both (FIG. 4B), which coincided with the data of flow cytometry. LpMab-2 reacted with neither normal alveolar epithelial cells nor lymphatic cells (FIG. 4C). The LpMab-7 on the other hand stained alveolar epithelial cells and lymphatic vessel (FIG. 4D).

[10] = molecular target: T10, human podoplanin on malignant mesothelioma cells Y-MESO14-hPDPN (human, UniProt Q86YL7 23-162); experiment: flow cytometry on Y-MESO14-hPDPN cells, antibody 1 µg/ml
T10 construct: Podoplanin gene expression strain
T10 chain: T1 chain
Procedure: as §1

[11] = molecular target: T11, synthetic peptide of human podoplanin from position 69 to position 88 (human); experiment: ELISA on synthetic peptides
T11 peptide: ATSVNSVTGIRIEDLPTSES

[12] = molecular target: T12, human podoplanin on testicular tumor cells (paraffin section) (human, UniProt Q86YL7 23-162); experiment: immunohistostaining of a testicular tumor paraffin section (FIG. 4B)
T12 construct: also called tumor portion of testicular tumor
T12 chain: T1 chain
Procedure: as §4, §5

[13] = molecular target: T13, human podoplanin on glioblastoma cells LN319 (human, UniProt Q86YL7 23-162); experiment: flow cytometry on LN319 cells, antibody 1 µg/ml
T13 construct: Podoplanin of the LN319 cell line itself; also called LN 319 cells; podoplanin expression strain
T13 chain: T1 chain
Procedure: as §1

[14] = molecular target: T14, human podoplanin on oral cancer cells HSC3/hPDPN (human, UniProt Q86YL7 23-162); experiment: flow cytometry on HSC3/hPDPN cells, antibody 1 µg/ml
T14 construct: Podoplanin gene expression strain; also called oral cancer cell line
T14 chain: T1 chain
Procedure: as §1

[15] = molecular target: T13, human podoplanin on glioblastoma cells …; experiment: flow cytometry on LN319 cells, culture supernatant

Measured: binding result

B1: LpMab-7 (antibody)
heavy: DVQLVESGGGLVQPGGSRKLSCAASGFTFSGFGMHWVRQAPEKGLEWVAYISSVSSRIYYADTVKGRFTISRDNPKNTLFLQMTSLRSEDTAMYYCAREQTGPAWFAYWGQGTLVTVSAAKTTPPSVYPLAPGSAAQTNSMVTLGCLVKGYFPEPVTVTWNSGSLSSGVHTFPAVLQSDLYTLSSSVTVPSSTWPSETVTCNVAHPASSTKVDKKIVPRDCGCKPCICTVPEVSSVFIFPPKPKDVLTITLTPKVTCVVVDISKDDPEVQFSWFVDDVEVHTAQTQPREEQFNSTFRSVSELPIMHQDWLNGKEFKCRVNSAAFPAPIEKTISKTKGRPKAPQVYTIPPPKEQMAKDKVSLTCMITDFFPEDITVEWQWNGQPAENYKNTQPIMDTDGSYFVYSKLNVQKSNWEAGNTFTCSVLHEGLHNHHTEKSLSHSPGK
light: DVLMTQTPLSLPVSLGDQASISCRSSRNIVQSTGNTYLEWYLQKPGQSPKLLIFKVSNRFSGVPDRFSGSGSGTDFTLKISRVEAEDLGVYYCFQGSHVPPWTFGGGTKLEIKRADAAPTVSIFPPSSEQLTSGGASVVCFLNNFYPKDINVKWKIDGSERQNGVLNSWTDQDSKDSTYSMSSTLTLTKDEYERHNSYTCEATHKTSTSPIVKSFNRNEC
notes: Mouse IgG1, kappa, from hybridoma; Entries may hold the signal peptide
not listed: [15]
binds: all other assays above

B2: rLpMab-7 (antibody, mouse IgG1, kappa)
heavy: B1 heavy
light: B1 light
notes: Full-length H and L chain of LpMab-7 expressed in CHO cells; also called recombinant LpMab-7
binds: [15]

B3: chLpMab-7 (antibody, human IgG1, kappa)
heavy: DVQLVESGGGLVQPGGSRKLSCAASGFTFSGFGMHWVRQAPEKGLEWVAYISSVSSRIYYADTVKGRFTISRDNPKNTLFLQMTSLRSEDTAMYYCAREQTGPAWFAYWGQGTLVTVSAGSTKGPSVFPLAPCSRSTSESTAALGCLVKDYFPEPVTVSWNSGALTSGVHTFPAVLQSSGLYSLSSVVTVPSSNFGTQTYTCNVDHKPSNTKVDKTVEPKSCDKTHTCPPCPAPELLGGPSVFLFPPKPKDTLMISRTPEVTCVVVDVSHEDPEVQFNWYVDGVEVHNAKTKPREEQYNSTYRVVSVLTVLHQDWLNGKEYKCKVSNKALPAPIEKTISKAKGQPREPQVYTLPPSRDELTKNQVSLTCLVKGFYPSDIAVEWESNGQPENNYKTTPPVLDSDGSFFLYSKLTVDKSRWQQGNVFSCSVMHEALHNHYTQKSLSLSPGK
light: B1 light
notes: culture supernatant used; also called human chimeric LpMab-7
binds: [15]

B4: chLpMab-23 (antibody, human IgG1, kappa, V domains shown)
VH: QVQLKESGPGLVAPSQSLSITCTVSGFSVTSYGIHWVRQPPGKGLEWLGVIWTSGNTNYNSALMSRLSISRDNSKSQVFLKMNSLQTDDTAMYYCAREDYYGYAMDYWGQGTSVTVSS
VL: not shown
notes: Variable regions of LpMab-23 with human IgG1 constant region; Culture supernatant used; also called human chimeric LpMab-23 antibody
binds: [15]

B5: chLpMab-3 (antibody, human IgG1, kappa, V domains shown)
VH: EVQLVESGGGLVKPGGSLKLSCAASGFTFTRYAMSWVRQTPEKRLEWVATISNGGSYTYYLDSVKGRFTLSRDNAKNTLYLQMSSLRSEDTAMYYCARREGGQAGPAWFVYWGQGTLVTVSA
VL: DIVMTQSPSSLAMSVGQKVTMNCKSSQSLLNSSNQKNYLAWYQQKPGQSPKLLVYFASTRESGVPDRFIGSGSGTDFTLTISSAQAEDLADYFCQQYYSTPPTFGAGTKLELKR
notes: culture supernatant used; also called human chimeric LpMab-3
binds: [15]

From US20160347834A1 (ZENOAQ RESOURCE, published 2016)
